The text below walks through data of patent US20110213337A1 (BOARD OF TRUSTEES OF THE UNIVERSITY OF ARKANSAS, published 2011).

This test concerns the target T1, HLA A2.1 (A*0201) (human).
T1 construct: whole, on cells; Endogenous HLA class I molecule of T2 cells and of EBV-transformed LCL; also called HLA A0201
The experiment in a line: T2 cell HLA A2.1 stabilisation assay, flow cytometry. An excerpt:
This technique employs T2 cells which are peptide transporter-deficient and thus express low endogenous HLA class I levels due to inability to load peptide and stabilize HLA class I folding for surface expression.

B1: Hepsin peptide 170-178 (peptide)
peptide: SLGRWPWQV
notes: Synthesized peptide added to T2 cells or loaded onto LCL; also called hepsin 170-178
As for B1, the binding result is “binds”.
